Assay results published in the supplement of paper PMC9170038.

Tests used:
MS2 coat protein [1] = test: apparent KD of MS2 coat protein, switch ON state; designed switch direction (-1 OFF switch, 1 ON switch): -1; higher = weaker reporter binding; details: FMN input: 0 or 200 uM; Eterna round: R93 (includes R88 designs)
Summary of the method: (§1)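 Designed RNA switches were transcribed on-chip from Illumina sequencing clusters and titrated with SNAP-549-labelled MS2 coat protein in twofold steps from 0.7 or 1.5 nM up to 3 µM. Each step lasted 0.8–1.5 h at first and 10–20 min by the end, in 100 mM Tris-HCl pH 7.5, 80 mM KCl and 4 mM MgCl2, without or with constant ligand. Apparent KD is the median, for each design, of fits to normalised cluster binding curves.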

MS2 coat protein [2] = test: apparent KD of MS2 coat protein, switch OFF state (with FMN for OFF switches, without FMN for ON switches); designed switch direction (-1 OFF switch, 1 ON switch): -1; higher = weaker reporter binding; details: FMN input: 0 or 200 uM; Eterna round: R93 (includes R88 designs)
Summary of the method: as §1

Row | Sequence | apparent KD of MS2 coat protein (MS2 coat protein [1]) | apparent KD of MS2 coat protein (MS2 coat protein [2])
1 | AAUAAGUCAGGAUAUACUAAAGAAAUGAAAAGGGAUAAAGAACAUGAGGAUCACCCAUGUAGAAGGGACAAUAA [Sakir-Har] | 93.2 nM | 51.6 nM
2 | AAGAAGUCAGGAUAUGCCAGAGAUCAAGAAAGUGACGAAUAGCAGAAGGGACAUGAGGAUCACCCAUGUAAAGA [Opal 9] | 43.5 nM | 35.9 nM
3 | AAGAAACAUGAGGAUCACCCAUGUCAGGAUAUGCAAAACUGACGAAAGUCAGAAGAAAGCAGAAGGGACUAGAA [5-pair stack] | 29.1 nM | 52 nM
4 | AACAAGUCAGGAUAUCAUACUAAUCACUUGCUUUAAAUGUAUGAGAAGGGACAUGAGGAUCACCCAUGUAAAGA [Exclusion4-cac3] | 46.8 nM | 34.1 nM
5 | AAGAAGUGAGGAUAUCGAAGACUGUCGAAAAGACAGUCGAACGAGAAGGCACAUGAGGAUCACCCAUGUGAGGA [Marsurpial 65% 2] | 26.2 nM | 50.1 nM
6 | UGGGAGUCAGGAUAUACGAACAUGUCGCCAGAUGUCAAGGUACAUGAGGAUCACCCAUGUAGAAGGGACGAGAA [salish99-Ex2-28] | 53.1 nM | 34.1 nM
7 | AAAAAACAUGAGGAUCACCCAUGUAAGGAUAUGUGAAAAAAAAAAUAAAAAAAAAAAAGCAGAAGGUACAAAAA [LROPPY Exclusion 1 - v01_deltaG=3.64] | 66.5 nM | 74.8 nM
8 | UAUAUACAUGAGGAUCACCCAUGUCAGGAUAUGCGCCCAGAAUAUACAUAUGAUACAAGCAGAAGGGACACUAA [JR_Exc001_Sub205] | 55.3 nM | 49.3 nM
9 | GAAAAUGGAGGAUAUACAUGAGGAUCACCCAUGUGUAUAAAAAAAUACACAAAAGAAAGUAGAAGGCCAUAAAG [Mat - Exclusion 3 - Mayanna mod - D101] | 31.4 nM | 114 nM
10 | AAGAACCAAGGAUAUACAUGAGGAUCACCCAUGUAAAAGAAAGAAAAGGGAAAGAAAAGUAGAAGGUGGAAGAA [Userkheperure Seti II] | 25.7 nM | 27.3 nM
11 | AAAAAGCGAGGAUAUACGAGUCAAAGAAAAGACAAAAAGGGACAUGAGGAUCACCCAUGUAGAAGGCGCAAAAA [Fiskers exclusion D2 62% 3] | 30.5 nM | 47.1 nM
12 | CUCAAGUAAGGAUAUUCAAGAAAAGAAGAGAAAGAAAAGAAGAAGAAGGUACAUGAGGAUCACCCAUGUAAGAA [EteRNA is fun!] | 44.6 nM | 35.3 nM
13 | UCCGGACAUGAGGAUCACCCAUGUGAGGAUAUAUAAAGUGGGACUGGAAACAGGCCCAAUAGAAGGCACAUGAC [Atatesin] | 22.6 nM | 21.9 nM
14 | AGCUAGUCAGGAUAUACGAAAAUGUAAAAAGAAGUGAAGGGACAUGAGGAUCACCCAUGUAGAAGGGACUAGAA [74%, Web mod - With 4 less C's] | 58 nM | 116 nM
15 | ACCUGACAUGAGGAUCACCCAUGUCAGGAUAUGACUUCGAAAAAAAAAAAAAACGAUGUCAGAAGGGACAUGGG [Design 70: Sub-opt P] | 15.4 nM | 15.9 nM
16 | AGGAAACAUGAGGAUCACCCAUGUUAGGAUAUGAACGAAAUAAAAUAAAAAUAAAAGUUCAGAAGGGACAAAAA [Mat - Exclusion 1 - Eli mod - D20] | 24.9 nM | 49.6 nM
17 | AACUAGUCAGGAUAUACGAACAUGUCAAAAGACGUGAAGGGACAUGAGGAUCACCCAUGUAGAAGGGACUAGCA [74%, Web mod - With 1 less G's] | 47.1 nM | 147 nM
18 | AACAGUACAGGAUAUACAUGAGGAUCACCCAUGUGAAAAUUAAGUGGGAAACCACAAUGUAGAAGGGUACUGGA [Mat - Exclusion 3 - Eli mod - D50] | 121 nM | 109 nM
19 | AAGAACCUAGGAUAUACUAAAGAAAUGAAAAGAAAUAAAGAACAUGAGGAUCACCCAUGUAGAAGGAGGAAGAA [Sewadjkare III] | 43.4 nM | 26.1 nM
20 | UAUAGACAUGAGGAUCACCCAUGUGAGGAUAUGAGUGACUACAGGACAUCACGUACAAUCAGAAGGCACAGAAA [JR_Exc001_Sub016] | 47.9 nM | 60.9 nM
21 | AAAAAACAUGAGGAUCACCCAUGUAAGGAUAUGCAGAUUAUAAGAAAAAAAAAAAAAAGCAGAAGGUACAAAAA [Default title] | 37.4 nM | 28.2 nM
22 | AACAAGACAGGAUAUACAUGAGGAUCACCCAUGUGAGAAUAAAGUGGCGUAACACAAAGUAGAAGGGUCAUGGA [Ruby 6] | 32.6 nM | 55.5 nM
23 | AACUGACAUGAGGAUCACCCAUGUCAGGAUAUGAUAUGUAAAAAAAAAAAAAUACUUAUCAGAAGGGACAUGAA [Design 44: Sub-opt CB] | 15.1 nM | 14.1 nM
